# Read-outs that look alike come from different tables or passages of the source.
# T1: mouse TrkC LRRIg1 (soluble) (mouse, UniProt Q6VNS1 32-302)
# T1 chain: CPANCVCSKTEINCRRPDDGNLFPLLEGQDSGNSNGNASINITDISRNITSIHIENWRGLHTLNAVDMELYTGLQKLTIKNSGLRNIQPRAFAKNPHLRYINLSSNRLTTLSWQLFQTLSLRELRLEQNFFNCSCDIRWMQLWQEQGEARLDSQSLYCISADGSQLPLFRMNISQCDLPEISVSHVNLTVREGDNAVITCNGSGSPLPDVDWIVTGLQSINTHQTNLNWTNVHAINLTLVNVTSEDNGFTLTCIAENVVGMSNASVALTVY
# T2: mouse TrkC LRRIg2 (Mus musculus)
# T2 chain: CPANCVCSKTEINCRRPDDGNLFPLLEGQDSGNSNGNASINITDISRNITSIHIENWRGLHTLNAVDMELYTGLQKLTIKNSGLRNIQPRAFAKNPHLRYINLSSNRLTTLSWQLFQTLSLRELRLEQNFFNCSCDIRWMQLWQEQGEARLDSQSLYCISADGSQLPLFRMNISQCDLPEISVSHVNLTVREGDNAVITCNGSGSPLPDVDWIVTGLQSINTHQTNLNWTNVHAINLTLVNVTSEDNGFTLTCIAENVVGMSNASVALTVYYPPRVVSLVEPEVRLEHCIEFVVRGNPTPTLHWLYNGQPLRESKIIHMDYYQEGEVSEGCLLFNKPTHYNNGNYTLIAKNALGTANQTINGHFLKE
# T3: mouse TrkC LRRIg1, C-terminal Avitag, immobilized (mouse, UniProt Q6VNS1 32-302, biotin on the Avitag (enzymatic))
# T3 chain: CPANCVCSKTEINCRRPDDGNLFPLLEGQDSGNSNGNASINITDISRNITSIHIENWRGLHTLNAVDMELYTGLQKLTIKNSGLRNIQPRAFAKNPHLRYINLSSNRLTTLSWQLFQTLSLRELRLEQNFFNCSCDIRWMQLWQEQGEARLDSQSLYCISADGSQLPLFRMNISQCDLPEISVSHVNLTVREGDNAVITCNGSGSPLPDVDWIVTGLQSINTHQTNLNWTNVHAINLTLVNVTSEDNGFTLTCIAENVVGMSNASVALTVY
# T4: chicken TrkC LRRIg1cryst (crystallization protein) (chicken, UniProt Q91044 32-302, lack residues 63–77 | N163Q | N232Q | N259Q | N267Q | N294Q)
# T4 construct: chicken TrkC LRRIg1, amino acids 32–302 of NCBI NM_205169.1, lacking residues 63–77; extra vector residues ETG (N-terminal) and GT (C-terminal) seen in the model; The methods name only the pHL-Avitag3 vector for this construct; also called cTrkC LRRIg1_(cryst)
# T4 sequence (looked up): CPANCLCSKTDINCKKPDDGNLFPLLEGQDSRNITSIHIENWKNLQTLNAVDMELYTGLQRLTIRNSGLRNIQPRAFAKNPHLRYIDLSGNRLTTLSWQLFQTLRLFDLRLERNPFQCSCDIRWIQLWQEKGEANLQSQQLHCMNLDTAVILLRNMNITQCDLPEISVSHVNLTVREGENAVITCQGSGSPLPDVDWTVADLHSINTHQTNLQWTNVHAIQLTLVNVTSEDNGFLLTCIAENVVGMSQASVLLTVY
# T5: chicken RPTPσ N73S+S74N (RPTPδ-like) Ig1–3, C-terminal Avitag (chicken, UniProt F1NWE3 29-316, N73S | S74N, biotin on the Avitag (enzymatic))
# T5 construct: chicken RPTPσ Ig1–3, amino acids 29–316 of NCBI NM_205407.1; not shown: Avitag (BirA recognition site), C-terminal, kept
# T5 sequence (looked up): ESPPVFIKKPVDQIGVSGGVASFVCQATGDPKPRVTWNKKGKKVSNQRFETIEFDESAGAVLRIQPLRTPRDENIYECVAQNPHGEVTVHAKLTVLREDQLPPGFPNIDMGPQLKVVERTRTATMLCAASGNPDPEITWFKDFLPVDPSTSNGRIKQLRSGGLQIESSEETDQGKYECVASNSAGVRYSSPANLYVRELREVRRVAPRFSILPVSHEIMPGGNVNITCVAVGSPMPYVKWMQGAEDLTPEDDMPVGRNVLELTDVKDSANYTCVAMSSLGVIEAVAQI
# T6: chicken RPTPσ Ig1–3, C-terminal Avitag, immobilized (chicken, UniProt F1NWE3 29-316, biotin on the Avitag (enzymatic))
# T6 construct: chicken RPTPσ Ig1–3, amino acids 29–316 of NCBI NM_205407.1; not shown: Avitag (BirA recognition site), C-terminal, kept
# T6 sequence (looked up): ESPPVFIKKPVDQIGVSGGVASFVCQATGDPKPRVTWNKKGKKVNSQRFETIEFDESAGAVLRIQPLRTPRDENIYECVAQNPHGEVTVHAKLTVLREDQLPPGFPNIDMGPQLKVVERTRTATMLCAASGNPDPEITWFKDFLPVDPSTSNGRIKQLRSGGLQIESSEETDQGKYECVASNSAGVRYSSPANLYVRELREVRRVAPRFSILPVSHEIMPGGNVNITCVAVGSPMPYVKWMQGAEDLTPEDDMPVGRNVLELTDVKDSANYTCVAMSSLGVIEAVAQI
# Legend:
# [1] = target: T1, mouse TrkC LRRIg1 (soluble); test: SEC-MALS; Superdex200 HR10/30 in 10 mM Tris, 50 mM NaCl, pH 7.5; refractive index and multi-angle light scattering detectors
# mouse TrkC LRRIg2 = target: T2, mouse TrkC LRRIg2; test: SPR
# [2] = target: T3, mouse TrkC LRRIg1, C-terminal Avitag, …; test: SPR
# [3] = target: T1, mouse TrkC LRRIg1 (soluble); test: SPR
# [4] = target: T1, mouse TrkC LRRIg1 (soluble); test: SPR
# [5] = target: T1, mouse TrkC LRRIg1 (soluble); test: SPR
# [6] = target: T7, TrkC (species and construct not stated; Supplementary Figs 5a,b and 8i) ( (mouse or chicken constructs …, UniProt Q6VNS1 32-825); test: SPR; equilibrium; RPTPσ and TrkC truncations (Supplementary Fig. 5a,b); species and who was immobilized not given; conditions: both partners purified
# T7 construct: TrkC ectodomain construct; they may differ
# [7] = target: T8, mouse TrkC LRRIg1, C-terminal Avitag, immobilized (mouse, UniProt Q6VNS1 32-302, biotin on the Avitag (enzymatic)); test: SPR; equilibrium; biotinylated mouse TrkC LRRIg1 (wild type or D240A+D242A) immobilized on streptavidin-coated CM5 chips, human RPTP proteins as analytes; 10 mM HEPES pH 7.5, 150 mM NaCl, 0.01% Tween 20, 25 °C; in Fig. 6a also with increasing HS or heparin-dp10; conditions: both partners purified
# T8 construct: mouse TrkC, leucine-rich repeat domain and first Ig domain, amino acids 32–302 of NCBI BC139764.1; not shown: Avitag (BirA recognition site), C-terminal, kept
# [8] = target: T4, chicken TrkC LRRIg1cryst …; test: crystal structure; 2.5 Å, space group P2; 10% PEG 20k, 20% PEG MME 550, 0.1 M bicine/Tris pH 8.5, 0.03 M sodium nitrate, disodium hydrogen phosphate and ammonium sulphate; 20.5 °C; conditions: both partners purified
# [9] = target: T5, chicken RPTPσ N73S+S74N (RPTPδ-like) …; test: SPR; equilibrium; biotinylated chicken RPTPσ Ig1–3 (wild type or mutants) immobilized on streptavidin-coated CM5 chips, chicken TrkC LRRIg1 as analyte; 10 mM HEPES pH 7.5, 150 mM NaCl, 0.01% Tween 20, 25 °C; conditions: both partners purified
# [10] = target: T6, chicken RPTPσ Ig1–3, C-terminal Avitag, …; test: as above; conditions: both partners purified
binder,measurement,setting,value
human RPTPσ Ig1-FN3 (domain or fragment) EEPPRFIKEPKDQIGVSGGVASFVCQATGDPKPRVTWNKKGKKVNSQRFETIEFDESAGAVLRIQPLRTPRDENVYECVAQNSVGEITVHAKLTVLREDQLPSGFPNIDMGPQLKVVERTRTATMLCAASGNPDPEITWFKDFLPVDPSASNGRIKQLRSGALQIESSEETDQGKYECVATNSAGVRYSSPANLYVRVRRVAPRFSILPMSHEIMPGGNVNITCVAVGSPMPYVKWMQGAEDLTPEDDMPVGRNVLELTDVKDSANYTCVAMSSLGVIEAVAQITVKSLPKAPGTPMVTENTATSITITWDSGNPDPVSYYVIEYKSKSQDGPYQIKEDITTTRYSIGGLSPNSEYEIWVSAVNSIGQGPPSESVVTRTGEQAPASAPRNVQARMLSATTMIVQWEEPVEPNGLIRGYRVYYTMEPEHPVGNWQKHNVDDSLLTTVGSLLEDETYTVRVLAFTSVGDGPLSDPIQVKTQQGVPGQPMNLRAEARSETSITLSWSPPRQESIIKYELLFREGDHGREVGRTFDPTTSYVVEDLKPNTEYAFRLAARSPQGLGAFTPVVRQRTL,stoichiometry N,[1],1
same,Kd,mouse TrkC LRRIg2,202 nM
same,Kd,[2],278 nM
same,Kd,[3],468 nM
RPTPσ Ig1–3 (species not stated; Supplementary Figs 5a and 8i) (domain or fragment) EEPPRFIKEPKDQIGVSGGVASFVCQATGDPKPRVTWNKKGKKVNSQRFETIEFDESAGAVLRIQPLRTPRDENVYECVAQNSVGEITVHAKLTVLREDQLPSGFPNIDMGPQLKVVERTRTATMLCAASGNPDPEITWFKDFLPVDPSASNGRIKQLRSGALQIESSEETDQGKYECVATNSAGVRYSSPANLYVRVRRVAPRFSILPMSHEIMPGGNVNITCVAVGSPMPYVKWMQGAEDLTPEDDMPVGRNVLELTDVKDSANYTCVAMSSLGVIEAVAQITVKSLPKA,Kd,[4],551 nM
same,Kd,[5],580 nM
RPTPσ Ig1–2 (species not stated; Supplementary Fig. 5a) (domain or fragment) EEPPRFIKEPKDQIGVSGGVASFVCQATGDPKPRVTWNKKGKKVNSQRFETIEFDESAGAVLRIQPLRTPRDENVYECVAQNSVGEITVHAKLTVLREDQLPSGFPNIDMGPQLKVVERTRTATMLCAASGNPDPEITWFKDFLPVDPSASNGRIKQLRSGALQIESSEETDQGKYECVATNSAGVRYSSPANLYVRV,Kd,[6],2400 nM
human RPTPδ sEcto (domain or fragment) ETPPRFTRTPVDQTGVSGGVASFICQATGDPRPKIVWNKKGKKVSNQRFEVIEFDDGSGSVLRIQPLRTPRDEAIYECVASNNVGEISVSTRLTVLREDQIPRGFPTIDMGPQLKVVERTRTATMLCAASGNPDPEITWFKDFLPVDTSNNNGRIKQLRSESIGGTPIRGALQIEQSEESDQGKYECVATNSAGTRYSAPANLYVRELREVRRVPPRFSIPPTNHEIMPGGSVNITCVAVGSPMPYVKWMLGAEDLTPEDDMPIGRNVLELNDVRQSANYTCVAMSTLGVIEAIAQITVKALPKPPGTPVVTESTATSITLTWDSGNPEPVSYYIIQHKPKNSEELYKEIDGVATTRYSVAGLSPYSDYEFRVVAVNNIGRGPPSEPVLTQTSEQAPSSAPRDVQARMLSSTTILVQWKEPEEPNGQIQGYRVYYTMDPTQHVNNWMKHNVADSQITTIGNLVPQKTYSVKVLAFTSIGDGPLSSDIQVITQTGVPGQPLNFKAEPESETSILLSWTPPRSDTIANYELVYKDGEHGEEQRITIEPGTSYRLQGLKPNSLYYFRLAARSPQGLGASTAEISARTMQSKPSAPPQDISCTSPSSTSILVSWQPPPVEKQNGIITEYSIKYTAVDGEDDKPHEILGIPSDTTKYLLEQLEKWTEYRITVTAHTDVGPGPESLSVLIRTNEDVPSGPPRKVEVEAVNSTSVKVSWRSPVPNKQHGQIRGYQVHYVRMENGEPKGQPMLKDVMLADAQWEFDDTTEHDMIISGLQPETSYSLTVTAYTTKGDGARSKPKLVSTTGAVPGKPRLVINH,Kd,[7],> 22000 nM
"chicken RPTPσ Ig1–2 (as found in the 2.5 Å complex crystals) (domain or fragment, chicken RPTPσ; the crystallization protein was Ig1–3 (amino acids 29–316 of NM_205407.1); the cleavage site in the Ig2–Ig3 linker is not determined; also called cRPTPσ Ig1-2; source: HEK-293S GnTI− cells as Ig1–3, purified; Ig3 absent from the crystals, proteolytic cleavage the most likely reason) ESPPVFIKKPVDQIGVSGGVASFVCQATGDPKPRVTWNKKGKKVNSQRFETIEFDESAGAVLRIQPLRTPRDENIYECVAQNPHGEVTVHAKLTVLREDQLPPGFPNIDMGPQLKVVERTRTATMLCAASGNPDPEITWFKDFLPVDPSTSNGRIKQLRSGGLQIESSEETDQGKYECVASNSAGVRYSSPANLYVR",stoichiometry N,[8],1
chicken TrkC LRRIg1 (analyte of Fig. 3c) (domain or fragment) CPANCLCSKTDINCKKPDDGNLFPLLEGQDSGSSNGNTSINITDISRNITSIHIENWKNLQTLNAVDMELYTGLQRLTIRNSGLRNIQPRAFAKNPHLRYIDLSGNRLTTLSWQLFQTLRLFDLRLERNPFQCSCDIRWIQLWQEKGEANLQSQQLHCMNLDTAVILLRNMNITQCDLPEISVSHVNLTVREGENAVITCQGSGSPLPDVDWTVADLHSINTHQTNLQWTNVHAIQLTLVNVTSEDNGFLLTCIAENVVGMSQASVLLTVY,Kd,[9],> 21000 nM
same,Kd,[10],3500 nM

# Reference: PMC4239663, “Structural basis for extracellular cis and trans RPTPσ signal competition in synaptogenesis” (Nature Communications, 2014)
